Data published in patent US20100040616A1 (published 2010).
Substitutions are numbered along the chain they refer to.

T1: recombinant human CD127 extracellular domain (CD127 ECD) (human) (UniProt P16871)
T1 sequence: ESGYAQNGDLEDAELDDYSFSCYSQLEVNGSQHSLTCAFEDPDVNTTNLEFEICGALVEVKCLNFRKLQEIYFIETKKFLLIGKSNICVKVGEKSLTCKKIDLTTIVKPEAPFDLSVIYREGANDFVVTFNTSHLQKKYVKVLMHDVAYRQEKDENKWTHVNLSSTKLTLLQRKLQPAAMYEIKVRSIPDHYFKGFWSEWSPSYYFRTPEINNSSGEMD

T2: human CD127 expressed on cells (CD127-transfected CHO cells; PBMC and CD4+ T cells in functional assays) (human, UniProt P16871 21-459)
T2 construct: The construct transfected into CHO is not described further; also called CHO-CD127; IL-7Rα expressed on CHO
T2 chain: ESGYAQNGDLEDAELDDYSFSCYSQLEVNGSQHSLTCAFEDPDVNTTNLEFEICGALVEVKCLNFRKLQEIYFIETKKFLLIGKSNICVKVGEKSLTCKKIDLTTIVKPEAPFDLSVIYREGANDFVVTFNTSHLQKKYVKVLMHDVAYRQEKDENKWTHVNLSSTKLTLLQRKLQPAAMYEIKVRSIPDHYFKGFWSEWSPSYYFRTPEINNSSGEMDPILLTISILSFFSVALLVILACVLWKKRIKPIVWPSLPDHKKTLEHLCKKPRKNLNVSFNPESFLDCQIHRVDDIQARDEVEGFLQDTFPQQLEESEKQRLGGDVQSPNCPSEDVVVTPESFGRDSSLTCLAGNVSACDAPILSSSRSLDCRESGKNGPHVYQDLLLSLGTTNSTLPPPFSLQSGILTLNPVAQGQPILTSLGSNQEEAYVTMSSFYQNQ

B1: mAb 9B7 (murine anti-human CD127 monoclonal antibody) (antibody, IgG1, V domains shown)
VH: QVQLQESGPGLVAPSQSLSITCTVSGFSLSRYNVHWVRQPPGKGLEWLGMIWDGGSTDYNSALKSRLSITKDNSKSQVFLKMNSLQTDDTAMYYCARNRYESGMDYWGQGTTVTVSS
VL: DIVMTQTPSSLTVTAGEKVTMSCKSSQSLLNSGNRKNYLTWYQQKPGQSPKLLIYWASTRESGVPDRFTGSGSGTDFTLIISSVQAEDLAVYYCQNDYTYPFTFGSGTKLEIKR
B2: mAb 1A11 (murine anti-human CD127 monoclonal antibody) (antibody, mouse IgG1, V domains shown)
VH: EVQLQQSGPELLKPGASMKISCKASGYSFTGYTMNWVKQSHGKNLEWIGLINPYNGVTSYNQKFKGKATLTVAKSSSTAYMELLSLTSEDSAVYYCARGDGNYWYFDVWGAGTTVTVSS
VL: EIVLTQSPAITAASLGQKVTITCSASSSVTYMHWYQQKSGTSPKPWIYEISKLASGVPVRFSGSGSGTSYSLTISSMEAEDAAIYYCQEWNYPYTFGGGTKLEIK
B3: mAb GR34 (reverse engineered clone of R34.34) (antibody, mouse IgG1, V domains shown)
VH: B2 VH with L12V, N55S, V57I, K63N, A73D, S85N
VL: B2 VL with V3I, T30S, V59A, E89Y
B4: mAb 6A3 (murine anti-human CD127 monoclonal antibody) (antibody, mouse IgG1, V domains shown)
VH: DVQLQESGPGLVKPSQSLSLTCTVTGYSITTDYAWNWIRQFPGNKLEWMGYIFYSGSTTYTPSLKSRISITRDTSKNQFFLQLNSVTTEDTATYYCARGGYDVNYFDYWGQGTTLTVSS
VL: DIQMTQSPASQSASLGESVTITCLASQTIGAWLAWYQQKPGKSPQLLIYAATRLADGVPSRFSGSGSGTKFSFKISSLQAEDFVSYYCQQFFSTPWTFGGGTKLEIK
B5: mAb 6C5 (murine anti-human CD127 monoclonal antibody) (antibody, mouse IgG1, V domains shown)
VH: EVKLLESGGGLVQPGGSLKLSCAASGFAFSAYWMSWVRQAPGKGLEWIGEINPDSSTINCTPSLKDKFIISRDNAKNTLSLQMNKVRSEDTALYYCARRLRPFWYFDVWGAGTTVTVSS
VL: DVLMTQTPLSLPVSLGDQASISCRSSQSIVQSNGNTYLEWYLQKPGQSPKLLIYKVSNRFSGVPDRFSGSGSGTDFTLKISRVEAEDLGVYYCFQGSHVPRTFGGGTKLEIK
notes: also called Antibody 6C5

Legend:
[1] = biological target: T1, recombinant human CD127 extracellular domain (CD127 ECD) (human); experiment: SPR (Biacore T100), CD127 ECD amine-coupled on CM5, antibody (supernatant material) as analyte
[2] = biological target: T1, recombinant human CD127 extracellular domain (CD127 ECD) (human); experiment: ELISA: recombinant human CD127 ECD coated at 5 ug/ml, 9B7 hybridoma material titrated, HRP goat anti-mouse IgG detection
[3] = biological target: T1, recombinant human CD127 extracellular domain (CD127 ECD) (human); experiment: blocking of IL-7/IL-7Rα binding; competitor IL-7; method not given
[4] = biological target: T1, recombinant human CD127 extracellular domain (CD127 ECD) (human); experiment: SPR (Biacore T100, 25 °C), antibody captured on rabbit anti-mouse IgG, CD127 ECD as analyte
[5] = biological target: T1, recombinant human CD127 extracellular domain (CD127 ECD) (human); experiment: affinity for the IL-7Rα ECD (profile summary; SPR)
[6] = biological target: T2, human CD127 expressed on cells …; experiment: Flow cytometry cross-competition on CHO-CD127 cells: unlabelled antibody titrated against fluorescence-labelled BD anti-CD127 antibody (#552853)
Experimental: CHO-CD127 cells were prepared and washed by cold DPBS for 3 times. […] The antibody mixtures were then incubated with the CHO-CD127 cells for 30 min at 4° C. […] (FIG. 15).

Binder	Kd [1]	EC50 (read off the curve) [2]	IC50 [3]	Kd [4]	koff [4]	Kd [5]	koff [5]	kon [4]	IC50 (read off the curve) [6]
B1	0.556 nM	0.6 µg/mL							
B2			1.79 µg/mL	3.44 nM	0.000251 s⁻¹				
B3			2.29 µg/mL	15.3 nM	0.000875 s⁻¹				
B4			1.92 µg/mL	7.74 nM	0.000146 s⁻¹	7.99 nM	0.000334 s⁻¹	18900 M⁻¹ s⁻¹	
B5				24.4 nM	0.000436 s⁻¹			17900 M⁻¹ s⁻¹	~70 µg/mL
